Test results from IntAct's records for PubMed 20543817.

B1: Neuroligin-1 (Rattus norvegicus (Rat)), Q62765-2 (parent)
chain: MALPRCMWPNYVWRAMMACVVHRGSGAPLTLCLLGCLLQTFHVLSQKLDDVDPLVTTNFGKIRGIKKELNNEILGPVIQFLGVPYAAPPTGEHRFQPPEPPSPWSDIRNATQFAPVCPQNIIDGRLPEVMLPVWFTNNLDVVSSYVQDQSEDCLYLNIYVPTEDDIRDSGGPKPVMVYIHGGSYMEGTGNLYDGSVLASYGNVIVITVNYRLGVLGFLSTGDQAAKGNYGLLDLIQALRWTSENIGFFGGDPLRITVFGSGAGGSCVNLLTLSHYSEGLFQRAIAQSGTALSSWAVSFQPAKYARILATKVGCNVSDTVELVECLQKKPYKELVDQDVQPARYHIAFGPVIDGDVIPDDPQILMEQGEFLNYDIMLGVNQGEGLKFVENIVDSDDGVSASDFDFAVSNFVDNLYGYPEGKDVLRETIKFMYTDWADRHNPETRRKTLLALFTDHQWVAPAVATADLHSNFGSPTYFYAFYHHCQTDQVPAWADAAHGDEVPYVLGIPMIGPTELFPCNFSKNDVMLSAVVMTYWTNFAKTGDPNQPVPQDTKFIHTKPNRFEEVAWTRYSQKDQLYLHIGLKPRVKEHYRANKVNLWLELVPHLHNLNDISQYTSTTTKVPSTDITLRPTRKNSTPVTSAFPTAKQDDPKQQPSPFSVDQRDYSTELSVTIAVGASLLFLNILAFAALYYKKDKRRHDVHRRCSPQRTTTNDLTHAPEEEIMSLQMKHTDLDHECESIHPHEVVLRTACPPDYTLAMRRSPDDVPLMTPNTITMIPNTIPGIQPLHTFNTFTGGQNNTLPHPHPHPHSHSTTRV
B2: Neuroligin-2 (Rattus norvegicus (Rat)), Q62888-2 (parent)
chain: MWLLALCLVGLAGAQRGGGGPGGGAPGGPGLGLGSLGEERFPVVNTAYGRVRGVRRELNNEILGPVVQFLGVPYATPPLGARRFQPPEAPASWPGVRNATTLPPACPQNLHGALPAIMLPVWFTDNLEAAATYVQNQSEDCLYLNLYVPTEDDIRDSGKKPVMLFLHGGSYMEGTGNMFDGSVLAAYGNVIVATLNYRLGVLGFLSTGDQAAKGNYGLLDQIQALRWLSENIAHFGGDPERITIFGSGAGASCVNLLILSHHSEGLFQKAIAQSGTAISSWSVNYQPLKYTRLLAAKVGCDREDSTEAVECLRRKSSRELVDQDVQPARYHIAFGPVVDGDVVPDDPEILMQQGEFLNYDMLIGVNQGEGLKFVEDSAESEDGVSASAFDFTVSNFVDNLYGYPEGKDVLRETIKFMYTDWADRDNGEMRRKTLLALFTDHQWVAPAVATAKLHADYQSPVYFYTFYHHCQAEGRPEWADAAHGDELPYVFGVPMVGATDLFPCNFSKNDVMLSAVVMTYWTNFAKTGDPNQPVPQDTKFIHTKPNRFEEVVWSKFNSKEKQYLHIGLKPRVRDNYRANKVAFWLELVPHLHNLHTELFTTTTRLPPYATRWPPRTPGPGTSGTRRPPPPATLPPESDIDLGPRAYDRFPGDSRDYSTELSVTVAVGASLLFLNILAFAALYYKRDRRQELRCRRLSPPGGSGSGVPGGGPLLPTAGRELPPEEELVSLQLKRGGGVGADPAEALRPACPPDYTLALRRAPDDVPLLAPGALTLLPSGLGPPPPPPPPSLHPFGPFPPPPPTATSHNNTLPHPHSTTRV

Variants of: B1
Details: with Nrxn1, Q63373-3
Target sequence in this assay (Q63373 other isoform, or with tags, fused parts or gaps): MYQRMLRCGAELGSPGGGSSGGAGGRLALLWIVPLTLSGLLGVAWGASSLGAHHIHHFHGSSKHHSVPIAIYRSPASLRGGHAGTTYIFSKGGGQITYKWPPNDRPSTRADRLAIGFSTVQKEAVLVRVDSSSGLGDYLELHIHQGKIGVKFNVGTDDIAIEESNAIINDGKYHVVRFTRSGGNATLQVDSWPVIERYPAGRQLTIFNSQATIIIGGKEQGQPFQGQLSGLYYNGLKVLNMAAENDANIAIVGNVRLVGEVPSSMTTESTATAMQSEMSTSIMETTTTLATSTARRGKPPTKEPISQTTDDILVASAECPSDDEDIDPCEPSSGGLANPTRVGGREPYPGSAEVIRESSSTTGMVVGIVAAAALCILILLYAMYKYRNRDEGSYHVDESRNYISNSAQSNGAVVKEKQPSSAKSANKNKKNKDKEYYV

Variant	effect of a mutation on the interaction
G471A	disrupting interaction

Variants of: B2
Details: with Nrxn1, Q63373-3
Target sequence in this assay (Q63373 other isoform, or with tags, fused parts or gaps): as above

Variant	effect of a mutation on the interaction
Q458G	increasing interaction
